Test system: chromosome 15 (B2M) and chromosome 14 (TRAC) cut sites
Assay: Translocation rates induced by translocation promoting oligos
Assay type: cell-based, human
Settings: Cas9/B2M12 and Cas9/TRAC5 RNPs 0.6 μM; average of plus and minus strand oligo; FIG. 11B
Description: Two simultaneous DSBs were introduced in primary human T cells by nucleofection with Cas9/B2M (B2M12 gRNA) and Cas9/TRAC (TRAC5 gRNA) RNP complexes at a concentration of 0.6 μM, along with one of the translocation promoting oligos depicted in FIG. 11A.

B1: Dicentric oligo: translocation promoting ssODN, plus or minus strand, SEQ ID NOs: 16, 17 (nucleic acid)
chain 1: CACGCGTTTAATATAAGTGGAGGCGTCGCGCTGGCGGGCATTCCTGAAGCTGACAGCATTCGGGCCGAGATGATCAGGGTTCTGGATATCTGTGGGACAAGAGGATCAGGGTTAGGACATGATCTCATTTCCCTCTTTGCCCC
chain 2: GGGGCAAAGAGGGAAATGAGATCATGTCCTAACCCTGATCCTCTTGTCCCACAGATATCCAGAACCCTGATCATCTCGGCCCGAATGCTGTCAGCTTCAGGAATGCCCGCCAGCGCGACGCCTCCACTTATATTAAACGCGTG
modifications: /note=“Description of Unknown Donor template sequence”
In the case of B1, the translocation products enhanced is reported as “enhanced the formation of Dicentric and Acentric translocation products”.

— patent US12359223B2, “Systems and methods for modulating chromosomal rearrangements” (Editas Medicine, Inc., priority 2018, dated 2025)
